Literature values as cited in article PMC5683942.

Key:
[1] = molecular target: Histone H4 K5buK8bu (Homo sapiens) (UniProt P62805)
[2] = molecular target: Histone H4 K5ac (Homo sapiens) (UniProt P62805)
[3] = molecular target: Histone H2A K5ac (Homo sapiens) (UniProt P0C0S8)
[4] = molecular target: Histone H4 K8ac (Homo sapiens) (UniProt P62805)
[5] = molecular target: Histone H3 K14ac (Homo sapiens) (UniProt P68431)
[6] = molecular target: Histone H4 K12ac (Homo sapiens) (UniProt P62805)

Kd [1] | Kd [2] | Kd [3] | Kd [4] | Kd [5] | Kd [6] | Substance
60 µM | – | – | – | – | – | BRD9 bromodomain (from UniProt Q9H8M2)
– | 1240 µM | 48.5 µM | 697 µM | 626 µM | 86.5 µM | BRPF1 bromodomain (from UniProt P55201)
